Test results: the supplement of paper PMC7877785
± gives the uncertainty stated by the source.

Test: self-splicing fitness, log relative to wild type (ln ratio); higher = more splicing; Tetrahymena group I intron in knt gene, E. coli kanamycin selection, DiMSum; sequences stand for … in CUCUCU…GGAGGGAAAAGUUAUCAGGCAUGCACCUGGUAGCUAGUCUUUAAACCAAUAGAUUGCAUCGGUUUAAAAGGCAAGACCGUCAAAUUGCGGGAAAGGGGUCAACAGCCGUUCAGUACCAAGUCUCAGGGGAAACUUUGAGAUGGCCUUGCAAAGGGUAUGGUAAUAAGCUGACGGACAUGGUCCUAACCACGCAGCCAAGUCCUAAGUCAACAGAUCUUCUGUUGAUAUGGAUGCAGUUCACAGACUAAAUGUCGGUCGGGGAAGAUGUAUUCUUCUCAUAAGAUAUAGUCGGACCUCUCCUUAAUGGGAGCUAGCGGAUGAAGUGAUGCAACACUGGAGCCGCUGGGAACUAAUUUGUAUGCGAAAGUAUAUUGAUUAGUUUUGGAGUACUCGUGGUCG
How it was run: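 A randomised library covering all eight P1ex-region intron nucleotides was built with the intron in the knt kanamycin-resistance gene on pET-22b(+) and held in E. coli BL21(DE3). Cells were grown overnight at 37°C or 30°C on LB agar, with or without 25 μg/mL kanamycin, plus 100 μg/mL carbenicillin, 50 μM IPTG and 0.2% rhamnose, and pooled colonies were amplicon-sequenced on an Illumina HiSeq 2500. DiMSum fitness is the error-weighted combination of wild-type-normalised replicate fold changes, kanamycin versus none.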

Row | Sequence | self-splicing fitness (ln) (30 °C) | self-splicing fitness (ln) (37 °C)
1 | UCCGAGCAAUAUUACGGUCG | -3.68 ± 0.47 | -2 ± 0.45
2 | UCCGAGCAAUAUUACGUAAU | -4.41 ± 0.28 | -1.88 ± 0.18
3 | UCCGAGCAAUAUUACGUAGG | -2.69 ± 0.16 | -2 ± 0.25
4 | UCCGAGCAAUAUUACGUAUG | -2.36 ± 0.17 | -2.67 ± 0.24
5 | UCCGAGCAAUAUUACGUCGG | -2.97 ± 0.44 | -1.86 ± 0.35
6 | UCCGAGCAAUAUUACGUCGU | -2.21 ± 0.16 | -1.53 ± 0.18
7 | UCCGAGCAAUAUUACGUGAU | -4.03 ± 0.4 | -1.91 ± 0.41
8 | UCCGAGCAAUAUUACGUGGC | -3.27 ± 0.24 | -2.52 ± 0.33
9 | UCCGAGCAAUAUUACGUUUU | -3.83 ± 0.25 | -0.687 ± 0.15
10 | UCCUAGCAAUAUUACGAAAA | -2.7 ± 0.43 | 
11 | UCCUAGCAAUAUUACGAUUA |  | -3.41 ± 0.46
12 | UCCUAGCAAUAUUACGCACC | -2.95 ± 0.32 | -1.62 ± 0.25
13 | UCCUAGCAAUAUUACGCAGG | -1.8 ± 0.46 | -2.88 ± 0.37
14 | UCCUAGCAAUAUUACGCCUG | -2.87 ± 0.39 | -2.57 ± 0.46
15 | UCCUAGCAAUAUUACGCGAA | -2.24 ± 0.22 | -1.67 ± 0.17
16 | UCCUAGCAAUAUUACGCGCU | -2.24 ± 0.14 | -2.73 ± 0.23
17 | UCCUAGCAAUAUUACGCUAG | -3.47 ± 0.44 | 
18 | UCCUAGCAAUAUUACGCUAU | -2.89 ± 0.21 | -2.43 ± 0.27
19 | UCCUAGCAAUAUUACGCUUU |  | -1.85 ± 0.29
20 | UCCUAGCAAUAUUACGGAAC |  | -2.69 ± 0.24

Row | Sequence | self-splicing fitness (ln) (30 °C) | self-splicing fitness (ln) (37 °C)
21 | UCCUAGCAAUAUUACGGACU | -3.59 ± 0.24 | -2.39 ± 0.22
22 | UCCUAGCAAUAUUACGGCAC |  | -2.14 ± 0.24
23 | UCCUAGCAAUAUUACGGCUG | -3.67 ± 0.39 | -1.37 ± 0.47
24 | UCCUAGCAAUAUUACGGGCA | -0.22 ± 0.085 | 0.2 ± 0.097
25 | UCCUAGCAAUAUUACGGGUC | -3.81 ± 0.22 | -2.71 ± 0.28
26 | UCCUAGCAAUAUUACGGUCC | -2.63 ± 0.24 | 
27 | UCCUAGCAAUAUUACGUAUA | -3.53 ± 0.28 | -2.03 ± 0.16
28 | UCCUAGCAAUAUUACGUCGU | -2.3 ± 0.13 | -0.732 ± 0.13
29 | UCCUAGCAAUAUUACGUGUC | -3.06 ± 0.34 | -2.71 ± 0.38
30 | UCGAAGCAAUAUUACGACCG | -0.853 ± 0.12 | -0.898 ± 0.14
31 | UCGAAGCAAUAUUACGACGC | 0.247 ± 0.19 | -0.514 ± 0.2
32 | UCGAAGCAAUAUUACGACGU | -0.755 ± 0.1 | -0.205 ± 0.099
33 | UCGAAGCAAUAUUACGAGAA | -1.94 ± 0.41 | -1.23 ± 0.3
34 | UCGAAGCAAUAUUACGAGUA | -2.08 ± 0.14 | -0.398 ± 0.12
35 | UCGAAGCAAUAUUACGAGUG | -1.56 ± 0.1 | -1.52 ± 0.15
36 | UCGAAGCAAUAUUACGAUCG | -1.25 ± 0.099 | -0.609 ± 0.12
37 | UCGAAGCAAUAUUACGCAGU | -0.00368 ± 0.23 | -0.973 ± 0.47
38 | UCGAAGCAAUAUUACGCCAU | -3.42 ± 0.32 | -2.52 ± 0.48
39 | UCGAAGCAAUAUUACGCCCG | -1.33 ± 0.16 | -0.864 ± 0.17
40 | UCGAAGCAAUAUUACGCGUA | -1.46 ± 0.15 | -1.19 ± 0.13
